± gives the uncertainty stated by the source.
Experiment: self-splicing fitness, log relative to wild type (ln ratio); higher = more splicing; Tetrahymena group I intron in knt gene, E. coli kanamycin selection, DiMSum; sequences stand for … in CUCUCU…GGAGGGAAAAGUUAUCAGGCAUGCACCUGGUAGCUAGUCUUUAAACCAAUAGAUUGCAUCGGUUUAAAAGGCAAGACCGUCAAAUUGCGGGAAAGGGGUCAACAGCCGUUCAGUACCAAGUCUCAGGGGAAACUUUGAGAUGGCCUUGCAAAGGGUAUGGUAAUAAGCUGACGGACAUGGUCCUAACCACGCAGCCAAGUCCUAAGUCAACAGAUCUUCUGUUGAUAUGGAUGCAGUUCACAGACUAAAUGUCGGUCGGGGAAGAUGUAUUCUUCUCAUAAGAUAUAGUCGGACCUCUCCUUAAUGGGAGCUAGCGGAUGAAGUGAUGCAACACUGGAGCCGCUGGGAACUAAUUUGUAUGCGAAAGUAUAUUGAUUAGUUUUGGAGUACUCGUGGUCG
Method in brief: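 Six replicate transformations of E. coli BL21(DE3) with a pET-22b(+) library were grown overnight at 37°C or 30°C. The library randomised all eight P1ex-region intron nucleotides, the intron lying in the knt kanamycin-resistance gene, and plates were LB agar with or without 25 μg/mL kanamycin plus 100 μg/mL carbenicillin, 50 μM IPTG and 0.2% rhamnose. Pooled colonies were amplicon-sequenced on an Illumina HiSeq 2500, and fitness is the DiMSum error-weighted combination of wild-type-normalised replicate fold changes, kanamycin versus none.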

Row | Sequence | self-splicing fitness (ln) (30 °C) | self-splicing fitness (ln) (37 °C)
1 | UUCCAGCAAUAUUACGUGCU | -4.4 ± 0.34 | -3.29 ± 0.29
2 | UUCCAGCAAUAUUACGUUUU | -3.74 ± 0.14 | -2.65 ± 0.16
3 | UUCGAGCAAUAUUACGAAGA | -2 ± 0.29 | -1.36 ± 0.25
4 | UUCGAGCAAUAUUACGAGGG | -3.94 ± 0.3 | -3.12 ± 0.37
5 | UUCGAGCAAUAUUACGAUCC | -2.6 ± 0.49 | –
6 | UUCGAGCAAUAUUACGAUGU | -3.71 ± 0.46 | -2.7 ± 0.25
7 | UUCGAGCAAUAUUACGCACA | -1.76 ± 0.25 | -1.45 ± 0.28
8 | UUCGAGCAAUAUUACGCUCG | -1.64 ± 0.25 | -3.36 ± 0.42
9 | UUCGAGCAAUAUUACGCUGA | -2.66 ± 0.45 | -1.89 ± 0.44
10 | UUCGAGCAAUAUUACGCUGG | -0.924 ± 0.28 | -1.02 ± 0.42
11 | UUCGAGCAAUAUUACGCUUG | -3.26 ± 0.41 | –
12 | UUCGAGCAAUAUUACGGCAG | -2.05 ± 0.17 | -1.39 ± 0.19
13 | UUCGAGCAAUAUUACGGCGA | -2.23 ± 0.17 | -0.638 ± 0.18
14 | UUCGAGCAAUAUUACGGGAA | -1.74 ± 0.16 | -0.981 ± 0.15
15 | UUCGAGCAAUAUUACGGGUG | -1.78 ± 0.074 | -1.42 ± 0.086
16 | UUCGAGCAAUAUUACGGUGU | – | -3.35 ± 0.42
17 | UUCGAGCAAUAUUACGUAGG | -2.9 ± 0.2 | -1.52 ± 0.19
18 | UUCGAGCAAUAUUACGUCUG | -2.57 ± 0.24 | -1.65 ± 0.22
19 | UUCGAGCAAUAUUACGUGGC | -1.49 ± 0.48 | –
20 | UUCGAGCAAUAUUACGUUCA | -1.99 ± 0.13 | -1.15 ± 0.13
21 | UUCUAGCAAUAUUACGAGAU | -3.95 ± 0.33 | -2.67 ± 0.34
22 | UUCUAGCAAUAUUACGCAAG | -2.26 ± 0.35 | -0.437 ± 0.34
23 | UUCUAGCAAUAUUACGCUAU | -4.08 ± 0.29 | -1.42 ± 0.15
24 | UUCUAGCAAUAUUACGCUGG | -4.38 ± 0.46 | –
25 | UUCUAGCAAUAUUACGGACG | -1.14 ± 0.15 | 0.26 ± 0.15

Row | Sequence | self-splicing fitness (ln) (30 °C) | self-splicing fitness (ln) (37 °C)
26 | UUCUAGCAAUAUUACGGAGA | -2.45 ± 0.29 | -2.41 ± 0.49
27 | UUCUAGCAAUAUUACGGGCA | -0.323 ± 0.12 | -0.0935 ± 0.12
28 | UUCUAGCAAUAUUACGGGCC | – | -2.38 ± 0.45
29 | UUCUAGCAAUAUUACGGGCG | -0.382 ± 0.12 | -0.891 ± 0.12
30 | UUCUAGCAAUAUUACGGGUC | -3.23 ± 0.32 | -1.94 ± 0.23
31 | UUCUAGCAAUAUUACGGGUU | -2.34 ± 0.17 | -1.93 ± 0.24
32 | UUCUAGCAAUAUUACGGUGC | -2.46 ± 0.4 | -2.96 ± 0.38
33 | UUCUAGCAAUAUUACGUAAA | -1.56 ± 0.26 | -0.54 ± 0.23
34 | UUCUAGCAAUAUUACGUAAU | -3.08 ± 0.15 | -1.88 ± 0.17
35 | UUCUAGCAAUAUUACGUACU | -3.29 ± 0.36 | -2.97 ± 0.47
36 | UUCUAGCAAUAUUACGUCGC | -3.18 ± 0.44 | –
37 | UUCUAGCAAUAUUACGUCUC | -3.85 ± 0.37 | -2.23 ± 0.25
38 | UUCUAGCAAUAUUACGUGCU | -3.37 ± 0.24 | -2.11 ± 0.24
39 | UUCUAGCAAUAUUACGUUAA | -2.15 ± 0.23 | -1.32 ± 0.18
40 | UUCUAGCAAUAUUACGUUAC | -2.41 ± 0.23 | -2.42 ± 0.29
41 | UUCUAGCAAUAUUACGUUGC | -4.72 ± 0.39 | -2.64 ± 0.22
42 | UUCUAGCAAUAUUACGUUUG | -3.49 ± 0.35 | -2.66 ± 0.4
43 | UUGAAGCAAUAUUACGAACU | -1.61 ± 0.21 | 0.568 ± 0.2
44 | UUGAAGCAAUAUUACGAAGU | -3.34 ± 0.19 | -1.69 ± 0.21
45 | UUGAAGCAAUAUUACGACAU | 0.0991 ± 0.013 | 0.28 ± 0.033
46 | UUGAAGCAAUAUUACGACGA | 0.302 ± 0.12 | 0.04 ± 0.14
47 | UUGAAGCAAUAUUACGAGAC | -3.37 ± 0.17 | -2.5 ± 0.19
48 | UUGAAGCAAUAUUACGAUCA | -0.786 ± 0.1 | 0.00258 ± 0.15
49 | UUGAAGCAAUAUUACGAUCC | – | -1.38 ± 0.38
50 | UUGAAGCAAUAUUACGAUGC | -4.76 ± 0.39 | -1.58 ± 0.24

Row | Sequence | self-splicing fitness (ln) (30 °C) | self-splicing fitness (ln) (37 °C)
51 | UUGAAGCAAUAUUACGCAAC | -1.97 ± 0.25 | -2.43 ± 0.39
52 | UUGAAGCAAUAUUACGCGUC | -3.32 ± 0.33 | -1.02 ± 0.33
53 | UUGAAGCAAUAUUACGCUCA | -0.439 ± 0.12 | 1.17 ± 0.19
54 | UUGAAGCAAUAUUACGGACA | 0.534 ± 0.1 | 0.655 ± 0.14
55 | UUGAAGCAAUAUUACGGAGU | -2.51 ± 0.17 | -1.83 ± 0.18
56 | UUGAAGCAAUAUUACGGGUU | -1.66 ± 0.093 | -1.66 ± 0.16
57 | UUGAAGCAAUAUUACGGUAG | -0.0974 ± 0.088 | 0.0801 ± 0.12
58 | UUGAAGCAAUAUUACGGUGG | -0.88 ± 0.059 | -0.498 ± 0.11
59 | UUGAAGCAAUAUUACGGUUA | -0.344 ± 0.066 | 0.471 ± 0.086
60 | UUGAAGCAAUAUUACGGUUU | -2.88 ± 0.11 | -2.69 ± 0.19
61 | UUGAAGCAAUAUUACGUAAA | -1.42 ± 0.062 | -0.368 ± 0.081
62 | UUGAAGCAAUAUUACGUAGC | -3.42 ± 0.28 | -2.53 ± 0.33
63 | UUGAAGCAAUAUUACGUCCA | 0.231 ± 0.094 | 0.472 ± 0.12
64 | UUGAAGCAAUAUUACGUGAA | -1.92 ± 0.26 | -0.781 ± 0.22
65 | UUGAAGCAAUAUUACGUUGG | -1.18 ± 0.089 | -0.305 ± 0.15
66 | UUGCAGCAAUAUUACGAAGA | -2.37 ± 0.21 | -1.57 ± 0.18
67 | UUGCAGCAAUAUUACGAAGG | -3.92 ± 0.28 | -1.53 ± 0.2
68 | UUGCAGCAAUAUUACGAAUG | -1.98 ± 0.086 | -0.713 ± 0.1
69 | UUGCAGCAAUAUUACGACAC | -1.37 ± 0.19 | -1.22 ± 0.47
70 | UUGCAGCAAUAUUACGACAU | -0.522 ± 0.012 | 0.00633 ± 0.032
71 | UUGCAGCAAUAUUACGAGAA | – | -1.47 ± 0.34
72 | UUGCAGCAAUAUUACGAGCC | – | -2.7 ± 0.31
73 | UUGCAGCAAUAUUACGAUCG | -1.13 ± 0.1 | -0.473 ± 0.14
74 | UUGCAGCAAUAUUACGAUGG | -0.811 ± 0.14 | -1.07 ± 0.19
75 | UUGCAGCAAUAUUACGAUUG | -1.62 ± 0.32 | -0.337 ± 0.21

Row | Sequence | self-splicing fitness (ln) (30 °C) | self-splicing fitness (ln) (37 °C)
76 | UUGCAGCAAUAUUACGGAAC | -2.24 ± 0.32 | –
77 | UUGCAGCAAUAUUACGGAGA | -1.85 ± 0.12 | -1.08 ± 0.096
78 | UUGCAGCAAUAUUACGGAUA | -1.92 ± 0.15 | -1.12 ± 0.17
79 | UUGCAGCAAUAUUACGGGCU | -1.6 ± 0.16 | -1.17 ± 0.22
80 | UUGCAGCAAUAUUACGGGUG | -1.7 ± 0.081 | -1.59 ± 0.13
81 | UUGCAGCAAUAUUACGGGUU | -3.77 ± 0.25 | -2.15 ± 0.21
82 | UUGCAGCAAUAUUACGGUCU | -2.05 ± 0.092 | -1.26 ± 0.092
83 | UUGCAGCAAUAUUACGUAUA | -1.32 ± 0.12 | -1.01 ± 0.12
84 | UUGCAGCAAUAUUACGUGCC | -2.11 ± 0.14 | -1.18 ± 0.15
85 | UUGCAGCAAUAUUACGUGGG | -3.24 ± 0.12 | -2.8 ± 0.17
86 | UUGCAGCAAUAUUACGUUAC | -2.77 ± 0.15 | -2.18 ± 0.17
87 | UUGCAGCAAUAUUACGUUCU | -2.44 ± 0.12 | -0.872 ± 0.11
88 | UUGCAGCAAUAUUACGUUUG | -2.14 ± 0.14 | -0.998 ± 0.14
89 | UUGGAGCAAUAUUACGAAUA | – | -2.1 ± 0.46
90 | UUGGAGCAAUAUUACGACUA | -1.58 ± 0.41 | –
91 | UUGGAGCAAUAUUACGACUU | -1.94 ± 0.19 | -0.866 ± 0.28
92 | UUGGAGCAAUAUUACGCCAA | -1.49 ± 0.44 | –
93 | UUGGAGCAAUAUUACGCGAA | – | -1.4 ± 0.29
94 | UUGGAGCAAUAUUACGCGCG | -2.3 ± 0.11 | -0.8 ± 0.1
95 | UUGGAGCAAUAUUACGCGGC | – | -1.26 ± 0.41
96 | UUGGAGCAAUAUUACGCUCC | -2.79 ± 0.33 | -0.876 ± 0.46
97 | UUGGAGCAAUAUUACGGAAA | -3.48 ± 0.47 | -1.64 ± 0.24
98 | UUGGAGCAAUAUUACGGCCG | -1.89 ± 0.3 | -0.616 ± 0.29
99 | UUGGAGCAAUAUUACGGCCU | -2.26 ± 0.29 | -1.25 ± 0.27
100 | UUGGAGCAAUAUUACGGGCU | – | -2.95 ± 0.34
